Measured values: the DeepSol protein solubility set

Experiment: soluble on expression in E. coli; label from the status in PepcDB or PDB records

Soluble on expression in E. coli, not soluble:
MATRGPTPDKARMGLPDRWLHCPKTGTLINNLFFPFKTPLCKMYDNQIAERRYQFHPAEVFSHPHLHGKKIGLWIDLTNTDRYYFREEVTEHECIYHKMKMAGRGVSPTQEDTDNFIKLVQEFHKKYPDRVVGVHCTHGFNRTGFLIAAYLFQVEEYGLDAAIGEFAENRQKGIYKQDYIDDLFARYDPTEDDKILAPEKPDWEREMSIGMSTQIDNGRPSTSQQIPATNGNNNQNGNQLSGGGDNSKLFMDGLIRGVKVCEDEGKKSMLQAKIKNLCKYNKQGFPGLQPVSLSRGNINLLEQESYMVSWKADGMRYIIYINDGDVYAFDRDNEVFEIENLDFVTKNGAPLMETLVDTEVIIDKVEINGAMCDQPRMLIYDIMRFNSVNVMKEPFYKRFEIIKTEIIDMRTAAFKTGRLKHENQIMSVRRKDFYDLEATAKLFGPKFVQHVGHEIDGLIFQPKKTKYETGRCDKVLKWKPPSHNSVDFLLKVEKKCKEGMLPEWIGYLFVQNLSDPFGTMKATATLKKYHNKIIECTLLVDNQGRPKEWKFMRERTDKSLPNGLRTAENVVETMVNPVTETYLIEYVNHALRVLKRAAAAHRHHQIHQQQLHEGEPEARRQKL
GPGSMINWCEGCSNRNNNTQPELVLGNETFVTHGVAAPDKGSKYPLGGPFRLRESRTGNYITDKELFQDHWTLLYFGFSKCAEVCPSTLRFITDVMKACDEKLAGDKNLSTEAARLQAVFLSVDSRRDTPEVLEGFVSKYDPRVRGLTGTSKEIEQAARAWRVYYSSIDETDEEKSAREAKGVPMVGADDDTYQLDHSSAIYLVGVDGKLKDFFFKEMGVADAVGRLEVHLQDVYGFKDTRG
DIGCYTLGNAPPLELIDTCLCMGAGISIAGGISRTTKNSKNVAFIGDSTFFHSGIPAVINAVYNNADVTIAVLDNRTTAMTGHQPHPGTGKTALGKPTKLIDIEGILKSCGVEFVKTVSADDFSACKEISKEVIEYNGPSAVVFRGNCVSLVKSDKKYVIDK
KKLDLLITGVGGQGAILASDIIGKAAVISGIPIRAAETHGMAQRGGSVVNHIRLGSDLGSMIPKKGADIMLALEPMEAVRYLDFLKDGGVIIVNTQSIIPVTVTSGLSKYPEVQEILDALSEKYVVKAFNADELAHEAGSRLAMNVAMVGAVSGYLPISKEVLLESVKVLVPKKTIEINIRAFEMGREEVEE
MIKLAPAGLKDDIEMRKVYAGFIAGQIEAGSPIIALEADLMSSMAMDSVARDYPQHVINCGIMEANVIGTAAGLALTGRKPFVHTFTAFASRRCFDQLFMALDYQRNNVKVIASDAGVTACHNGGTHMSFEDMGIVRGLAHSVVLEVTDAVMFADILRQLMDLDGFYWLRTIRKQARSIYAPGSTFTIGKGNVLREGDDITLIANGIMVAEALEAARQLEQEGVSAAVIDMFTLKPIDRMLVKNYAEKTRRIVTCENHSIHNGLGSAVAEVLVENCPVPMRRVGVKERYGQVGTQDFLQKEYGLTAEAIVEAAKSLL
MGSDKIHHHHHHAAPGDLQEKLAALKGISGIEKLQSDYYPEKYVVRITQQVDPKDPAAGTFTQRVIVGHVGYDRPTIIVTEGYGAAYALNPKYQEELSKLLNANLVFVEYRYFLESTPEPKNWDYLTAENSAYDLHNVRNTFKQIYPGKWISTGISKGGQTTMLYRAFFPDDVDFSVPYVGPLCKGVEDGRHEPFLRKVGTKAEREKIQDFQLEVLKRKSDMLPLLESYCKNKNLTFRIPMPEVLDYCVLEYSFALWQWGTSVSTIPSKSADDQALFDHLMEISGPDYFAENQPNISFFVQAARELGYYGYDVKPFKKYLTIDSAHGYLNRIMLPEELVGKVDFRPALYHKIYNFLKDNDPKMIFIYGEIDPWSAAMVPAFKGKKNEQIYIQPRGSHRARIGNMPEDMKERILTQMNKWLAE
MGSDKIHHHHHHMKKLLLTAAITLTMPFAAHAGSEFVEGDATLAGEAELGATLTTGNTDTSSFKARLALKQELGDWENEYVFEGLYKEDTEEVTAKRYFLGVQGDYQINDVSYLFANTNYEVDPFTGYDFTSTTSAGYGHRFIDTDRMSLKAEAGPGYIYQQLDEESALAEGYDSDDSVVAHAVIDFQTKISDSSKFQQKFVADWGSKLDARSETSLTANIVGALAMKFAVIVRYNSEPLDDKESTDTETNMTLLYAF
MGSDKIHHHHHHMYLDVIEPDHPDYLTALLVKADLYDTEGLTEVAREKLLEASQISQEPLVIFGLAEIEMNLSDFQAAIQHYAQLDNRAILEETGVSTYERIGRAYASLGKFETAIEFLEKAVEIEFDETTVFEVATLLYDQEEYQRANLYFKQLDSMNPDFAGYEYNYALSLHAEHQTKQALRMLQQGLSKNEFDSQLLLLASQLSYELHDKKAAENYLLKVLETAEDDEEALMRLSNLYLEENRFEDVINLDRADIDSVLTKWNIAKAYQKLEADTKALEIYDTLIVDLADNPDFLKDYIYILRKFGYDEKVKTFADKYLQLVPDDNDIADLREQLQ
MSLNAHLSAAWPVPVSVAPDALAEIQADFSREWLRLCDEAKRGVLGAPADKRFAGAAWLDDRQRLLMAHAYLLSARAMARLVEAAQVSEPMRNRLRFSVMQWVDAMSPANFLAFNPDAQRAIVESAGRTLQEGMANLLNDIQRGRISQTDETQFEIGRNVATTPGHVVFENSLMQLIQYAPQTAKVCERPLVIVPPNINKYYILDLQPENSFVRYAVEQGHTVFIISWRNPLAADTDGVDTATWSEYLDDAVLKALAVASDISGQPQVNALGFCVGGTMLASALALAQARGERPVASLTLLTSLLDFHDTGILKVFVDEAHALLRDHQYGQRGLMPARDLATTFSFLRPNELVWNYVVSNYLKGKTPPAFDLLFWNADSTNLPGPFFAWYFRNTYLENNLKVPGRARAAGVPLDLTRLDMPAYLYGSREDHIVPWPSAYASTQLLRGPMRFVLGASGHIAGVINPPAKQRRSYWVNESAGEGHHHHHH
MSHHNPLVSVVIPSKNRPDLVIATLVSVIDQTYDNIEIIVVDDGSDMPLAPLLKDRFSDRVLCLRNDQSLGGAVARNRGAQSAHGDYITFLDDDDLWLPKKLEMQVDAFSKHGVDIGVVYCGFDFLCKEEIVPRQNKFHNDYDLSIAVLSGCPFGSPTPLIRKHYFDMVGGFDRELPSCQDWDLWIRLSKVCGFYPVKESLALYRVHGDQISTNLRKKIDGRKMVLAKHYDEIKNYPRVLSAHYSRIGSLCVLADEHVEARDFFSKALASNMFDGGSFVHLVLQFLCRPLEKWLIERFSVNTIDGIKVIHLEHHHHHH
MMGFSFYFFNEERYKMDKKDYKINKQNATAAKQQPLSPAAQRALNEAEERRKHETNEEKPLENGGRGGKDPSRYGDWEIKGRAIDFLEHHHHHH
MSLRIFKHQGCSAVKIRSTALVKGFRQSAPYVNAHRGKTMVVMLGGEAIADKNFPNIISDIALLHSLGVKVVLVHGARPQINQILEKNQRDTPYHKGVRITDESSLGLVMQAAGQLQHAITARLSMSLNNTPMAGTQLNVVSGNFIISQPLGIDEGVDYCHSGRIRRIDVEGINRMLDLGSIVLLGPIASSVTGECFNLLSEEVATQVAIKLKADKLIGFCPQQGIIDTKGNAIAELFPSDVERLVKSMEQECAPDDEECFSTMRFLRAALKACRAGVPRSHLVSYKEDGALIQELFSFDGIGTQIVMASAEQIRQATIDDIGGIFDLIRPLEEQGILVRRSREQLEQEIHKFTIIDKDGLVIGCSALYPYPEERMAEMACVAIHPEYRDGHRGLHLLVHSKHQAKQMGIRHLFVLTTHSTHWFREQGFNEVDVEALPMAKKSLYNYQRRSKILMLQLEGHHHHHH
MGSDKIHHHHHHMTEKKTMLEKLKKLMHHFTLSLDDISVETSRARQLSIRTEIDRLRSNERYKEPKSLIPFGGKIYSQNDEDGIIREIFNRIGTTNKVFVEFGIGNGLENNTLALLFEDWQGLWIDASSDSITSIRNHFSEIIGSGKLAVVESFITKANIDNLIATNVKHREIDLLSVDIDGNDYHVLQAISCITPRVIVIEYNAKFAPPVLFCMDYTETHMWTGDDCFGASLKFLETNLNKMGYCLVGCNLTGANAFFIRRELVTNKFLEPFTAENHFEPARYYLSGYASGHTPTYETLARSLTMRVS

Soluble on expression in E. coli, soluble:
MKFFILSTTLLLIGVQCGYPVAQNSYPTPPPPSDSYVVPKQSYPTAPGAYATKHSFPQNSAPVTAPPLPPPPAPSGYSSDDASVTSNVAASPPAPPTDAQIVGSSSSSTNYGGSSPTYGGSLSSGGIVGGNSLNYGTYNSASAGTPAATGAGASSGYRRRAKAKARARARARTAPNRRLHQRRHLQPIRRFRFQKKAKQ
MHLDRQSLEKAKHLIQSGLIDTIEVGTIKGLQEIHRFLFEGLYEFAGKIRDKNIAKGNFRFANCLYLDLILPRIESMPQNNFNQIVEKYVEMNIAHPFLEGNGRATRIWLDLLLKKELKKIVLWDRIDKAAYLSAMERSPVNDLEIKTLLKKHLSSNTNDPLTLIKGITQSYYYEGL
MFRAAAPGQLRRAASLLRFQSTLVIAEHANDSLAPITLNTITAATRLGGEVSCLVAGTKCDKVAQDLCKVAGIAKVLVAQHDVYKGLLPEELTPLILATQKQFNYTHICAGASAFGKNLLPRVAAKLEVAPISDIIAIKSPDTFVRTIYAGNALCTVKCDEKVKVFSVRGTSFDAAATSGGSASSEKASSTSPVEISEWLDQKLTKSDRPELTGAKVVVSGGRGLKSGENFKLLYDLADQLHAAVGASRAAVDAGFVPNDMQVGQTGKIVAPELYIAVGISGAIQHLAGMKDSKTIVAINKDPEAPIFQVADYGIVADLFKVVPEMTEILKKK
MSISISYSTTYSGWTVADYLADWSAYFGDVNHRPGQVVDGSNTGGFNPGPFDGSQYALKSTASDAAFIAGGDLHYTLFSNPSHTLWGKLDSIALGDTLTGGASSGGYALDSQEVSFSNLGLDSPIAQGRDGTVHKVVYGLMSGDSSALQGQIDALLKAVDPSLSINSTFDQLAAAGVAHATPAA
MGSDKIHHHHHHLPKLREDFKMQNKSVFILGASGETGKVLLKEILGQNLFSKVTLIGRRKLTFEEEAYKNVNQEVVDFEKLDVYASAFQGHDVGFCCLGTTRSKAGAEGFVRVDRDYVLKSAELAKAGGCKHFNLLSSRGADKSSSFLYLQVKGEVEAKVEELKFDRLSVFRPGVLLCDRQESRPGEWLARKFFGSLPDSWASGYAVPVVTVVRAMLNNLVSPSSGQMELLENKAILHLGKDRDVPKL
MGSSHHHHHHSSGLVPRGSQSTSLYKKAGLMISAGDFKNGVTFELDGQIFQVIEFQHVKPGKGAAFVRTKLKNIVTGATIEKTFNPTDKMPKAHIERKDMQYLYNDGDLYYFMDTETFEQLPLGKDKIGDALKFVKENEIVKVLSHKGNVFGIEPPNFVELEVTDTEPGFKGDTATGATKPAIVETGASIKVPLFVNKGDIIRIDTRTGEYMERV
GMCVEKTPWELVIDFHGHTCPDIALGYRIAQLAQREMGIRPAPDSECLVKAYTQSCALDAIQVLNKATIGRHALIIEETHRYMYQFHFTGTQDIHQFTVSPAVLDHLETLRHPDLSPRERQNKVLEGVQYVLTLEESAFCHYDKIPGQLSKIV
